# Results: US20260102485A1 (CEDARS SINAI MEDICAL CENTER, published 2026)
# Positions count from the first letter of the chain named. Where two headings read alike, the source gives them in different places.
# T1: human TL1A (hTL1A) antigen (human, UniProt O95150 58-251, limits assumed)
# T1 construct: also called TNFSF15
# T1 sequence (looked up): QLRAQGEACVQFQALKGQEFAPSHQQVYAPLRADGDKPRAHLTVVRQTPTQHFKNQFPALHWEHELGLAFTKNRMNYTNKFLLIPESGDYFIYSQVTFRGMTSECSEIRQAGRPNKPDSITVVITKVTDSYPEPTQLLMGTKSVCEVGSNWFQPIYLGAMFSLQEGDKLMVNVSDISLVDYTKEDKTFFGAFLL
# T2: murine TL1A (murine, UniProt Q5UBV8 94-252, limits assumed)
# T2 sequence (looked up): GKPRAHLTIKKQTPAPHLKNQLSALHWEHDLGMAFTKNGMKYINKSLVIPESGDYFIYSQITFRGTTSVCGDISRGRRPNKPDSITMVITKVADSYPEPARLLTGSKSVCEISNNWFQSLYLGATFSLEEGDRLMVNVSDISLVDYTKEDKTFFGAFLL
# B1: AS12824 (antibody, V domains shown)
# VH: QVQLVQSGAEVKKPGASVKVSCKASGFDICDTYMHWVKQRPGQGLEWIGRIDPASGHTKYDPKFQVRATITTDTSTSTAYLELSSLRSEDTAVYYCARSGGLPDVWGQGTTVTVSS
# VL: EIVLTQSPGTLSASPGERATMSCRASSSVSYMYWYQQKPGQAPRPWIYATSNLASGVPDRFSGSGSGTDYTLTISRVEPEDFAVYYCQQWSGNPRTFGGGTKLEIK
# notes: Humanized 5C3D11 clone from a phage display library; also called 15
# B2: AS12825 (antibody, V domains shown)
# VH: B1 VH with R40A, I48M, I70M, A97S
# VL: B1 VL with A19V, P45L, W46L, Y70F
# notes: Humanized 5C3D11 clone from a phage display library; also called 16
# B3: AS12816 (antibody, V domains shown)
# VH: B1 VH with T72R, A97S
# VL: B1 VL with A19V, M21L, Y70F, V77L
# notes: Humanized 5C3D11 clone from a phage display library
# B4: AS12823 (antibody, V domains shown)
# VH: B1 VH with V20L, K38R, I70M, A79V
# VL: B1 VL with A13L, V57I, Y70F
# notes: Humanized 5C3D11 clone from a phage display library; also called 14
# B5: AS12819 (antibody, V domains shown)
# VH: B1 VH with K12V, V20L, K38R, I48M, A68V, I70M, A79V
# VL: B1 VL with A13L, A19V, Y70F, L103V
# notes: Humanized 5C3D11 clone from a phage display library; also called 10
# B6: 5C3D11 (antibody, V domains shown)
# VH: EVQLQQSGAELVKPGASVKLSCTASGFDIQDTYMHWVKQRPEQGLEWIGRIDPASGHTKYDPKFQVKATITTDTSSNTAYLQLSSLTSEDTAVYYCSRSGGLPDVWGAGTTVTVSS
# VL: QIVLSQSPAILSASPGEKVTMTCRASSSVSYMYWYQQKPGSSPKPWIYATSNLASGVPDRFSGSGSGTSYSLTISRVEAEDAATYYCQQWSGNPRTFGGGTKLEIK
# notes: Mouse hybridoma monoclonal antibody; also called 684842-3; anti-TL1A antibody 5C3D11
# B7: 9E12E5 (antibody, V domains shown)
# VH: QVHLQQSGPELVKPGASVKLSCKASGYTFTKYDINWVRQRPEQGLEWIGWIFPGDGRTDYNEKFKGKATLTTDKSSSTAYMEVSRLTSEDSAVYFCARYGPAMDYWGQGTSVTVAS
# VL: DVLMTQTPLSLPVSLGDQASISCRSSQTIVHSNGDTYLDWFLQKPGQSPKLLIYKVSNRFSGVPDRFSGSGSGTDFTLKISRVEAEDLGVYYCFQGSHVPYTFGGGTKLEIK
# notes: Mouse hybridoma monoclonal antibody; also called 684842-6; anti-TL1A antibody 9E12E5
# What was measured:
# [1] = molecular target: T1, human TL1A (hTL1A) antigen; assay: SPR, affinity ranking, clone as ligand
# [2] = molecular target: T1, human TL1A (hTL1A) antigen; assay: SPR, multi-cycle, antibody as ligand, TL1A analyte
# [3] = molecular target: T1, human TL1A (hTL1A) antigen; assay: Biacore (SPR), TL1A as analyte
# [4] = molecular target: T1, human TL1A (hTL1A) antigen; assay: cell-based or functional assay
# [5] = molecular target: T1, human TL1A (hTL1A) antigen; assay: cell-based or functional assay; remark: listed apart in the source
# murine TL1A = molecular target: T2, murine TL1A; assay: MSD electrochemiluminescence plate assay, antibody titrated on plates coated with murine TL1A
# Description: Anti-human TL1A monoclonal antibodies 9E12E5 and 5C3D11 neutralize the activity of human TL1A in vitro. […] MSD plates were coated with murine TL1A and incubated with various concentrations of 5C3D11 or 9E12E5 to evaluate the ability of the antibody to recognize murine TL1A, as shown in FIG. 6. Human TL1A was included as a positive control. 5C3D11 recognizes murine TL1A in a concentration dependent manner. The binding profile of both the 5C3D11 and 9E12E5 antibodies were assessed using a TL1A transfected HEK293 cell line and compared to the untransfected parental HEK293 cell line. Fluorescent staining of the anti-TL1A antibodies in TL1A expressing HEK293 cells is compared to the untransfected parental HEK293 cells, as shown in FIG. 7.
Binder,Kd [1],koff [1],kon [1],kon [2],Kd [3],"EC50, inhibition of human TL1A induced IFN-γ production (percent of IFN-γ production without inhibitor) [4]","EC50, inhibition of human TL1A induced IFN-γ production (percent of IFN-γ production without inhibitor) [5]",binding result (murine TL1A)
B1,0.0163 nM,1.69e-05 s⁻¹,1.03e+06 M⁻¹ s⁻¹,1.07e+06 M⁻¹ s⁻¹,,,,
B2,0.105 nM,5.45e-05 s⁻¹,518000 M⁻¹ s⁻¹,,,,,
B3,0.062 nM,4.73e-05 s⁻¹,763000 M⁻¹ s⁻¹,819000 M⁻¹ s⁻¹,,,,
B4,0.0424 nM,3.66e-05 s⁻¹,864000 M⁻¹ s⁻¹,1.11e+06 M⁻¹ s⁻¹,,,,
B5,0.0462 nM,3.81e-05 s⁻¹,825000 M⁻¹ s⁻¹,946000 M⁻¹ s⁻¹,,,,
B6,,,,,0.079 nM,1 nM,,
B7,,,,,0.52 nM,,2.4 nM,no binding (tested: 100 ng/ml)
